Source: patent US20150238573A1, “NUTRITIONAL FOOD AND FEED, COMPOSITION, PROCESSING AND METHOD OF USE” (Nutrinia Ltd., priority 2004, published 2015)

Key:
[1] = Influence on vitamin C in the preterm RTF formula; assay type: physicochemical; details: 0, 6 and 12 hours from insulin supplementation
[2] = Stability in liquid infant formula over time (Elisa kit); assay type: physicochemical
Description: The InsuMeal™ is intended to be consumed immediately after solubilization in the infant formula. […] Furthermore, in order to evaluate the final product homogeneity, at each time interval, sampling was taken at the upper, middle and lower layers of the sampled RTF bottle, as well as after formula liquid stirring.

[3] = Clinical trials of oral insulin in preterm infants; assay type: in vivo, human
Description: Clinical trials were done involving supplementation of preterm infant orally-fed with Insulin.

## Insulin
[1]
  vitamin C concentration in formula after insulin supplementation: No significant differences
[2]; 0 hour from insulin addition, 100 μU in 60 ml preterm RTF formula
  Insulin concentration: 95.43 μU
[2]; 3 hour from insulin addition
  Insulin concentration: 105.47 μU
[2]; 6 hour from insulin addition
  Insulin concentration: 111.59 μU
[2]; 9 hour from insulin addition
  Insulin concentration: 93.34 μU
[2]; 12 hour from insulin addition
  Insulin concentration: 99.55 μU
[2]; 15 hour from insulin addition
  Insulin concentration: 105.38 μU
[2]; 18 hour from insulin addition
  Insulin concentration: 96.74 μU
[2]; 21 hour from insulin addition
  Insulin concentration: 93.78 μU
[2]; 24 hour from insulin addition
  Insulin concentration: 104.5 μU
[2]; liquid infant formula
  time highly stable after addition to liquid infant formula: at least 24 hr
[3]; 4 Units per Kg. per day oral for 28 days, control 20 days
  time to full enteral feeding: ≤ 11 days
[3]; trial group, control 6.5
  Lactase activity: 13.3
[3]; trial group, control 54
  Gastric residuals: 22
